One molecule from patent US20090136500A1 can be followed below.

Assay [1] has as its target PAI-1 (antigen of Example 11, species not stated). The assay can be described thus: SPR-type biosensor, 25 C, global 1:1 fit (format for mP-1 not given).
The target in assay [2] is PAI-1 (immobilized antigen of the P-ELISA of Figure 13, species not stated). Briefly: P-ELISA on immobilized biotin-labeled PAI-1 (species not stated), antibody with EDTA, A450.
Chain of PAI-1 (immobilized antigen of the P-ELISA of Figure 13, species not stated) (P05121 24-402): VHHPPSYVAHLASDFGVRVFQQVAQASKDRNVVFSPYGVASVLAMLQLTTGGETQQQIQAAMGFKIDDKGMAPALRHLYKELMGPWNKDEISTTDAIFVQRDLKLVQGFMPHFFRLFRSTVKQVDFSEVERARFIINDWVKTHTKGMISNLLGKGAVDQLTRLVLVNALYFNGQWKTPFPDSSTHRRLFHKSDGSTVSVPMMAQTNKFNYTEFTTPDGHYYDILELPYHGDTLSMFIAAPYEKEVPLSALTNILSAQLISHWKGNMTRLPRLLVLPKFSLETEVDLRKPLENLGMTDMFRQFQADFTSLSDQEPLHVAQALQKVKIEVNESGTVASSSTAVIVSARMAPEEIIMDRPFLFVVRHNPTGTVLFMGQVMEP

Chain of PAI-1 (antigen of Example 11, species not stated) (P05121 24-402): as above

B1: murine monoclonal antibody 33B8 (antibody, V domains shown)
VH: QIQLVQSGPELKKPGKTVTISCKASGYTFTNYGMNWVKQAPGKGLKWMGWINTYTGEPTYTDDFKGRFAFSLDTSASTAYLQISNLKNEDTATYFCAKDVSGFVFDYWGQGTTVTVSS
VL: DIVMTQSPSSLAVSVGEKVTMSCKSSQSLLNIIKQKNCLAWYQQKPGQSPKLLIYWASTRESGVPDRFTGSGSGTDFTLTISSVKAEDLAVYYCQQYYSYPYTFGGGTKLEIK
Consider B1, for which, in assay [1], the Kd amounted to 8.01 nM, the koff worked out at 0.00314 s⁻¹ and the kon was determined as 393000 M⁻¹ s⁻¹. In assay [2], this molecule registered an EC50 (read off the curve) of 0.1 µg/mL.

By Kd is commonly meant the free concentration of one partner at which half of the binding sites on the other are occupied at equilibrium, for simple one-to-one binding. Low values mean a tighter complex, high ones a looser complex. As usually defined, the koff is the first-order rate constant of dissociation. A low value points to a long-lived complex. By kon is commonly meant the rate constant with which the complex forms. Higher therefore signals faster complex formation. As usually defined, the EC50 (read off the curve) is the concentration that produces a half-maximal response. A high value points to lower potency in that assay.
